Earlier results in patent publication US4183849A, “Therapeutic insulin preparation and a process for the production of a stable insulin preparation with protracted effect” (Nordisk Insulinlaboratorium, priority 1975, dated 1980).

Details: impurities of recrystallized insulin, stated as known

proinsulin
antigenicity: highly antigenic
